Laboratory results as given in patent US20240425571A1, “GLYCOPROTEIN A REPETITIONS PREDOMINANT (GARP)-BINDING ANTIBODIES AND USES THEREOF” (OHIO STATE INNOVATION FOUNDATION, priority 2021, published 2024).

Columns and labels:
Ag(−) cell = assay: FACS analysis with Ag(−) cell (non-specific binding); details: 5 ug/ml
Description: Methods—FACS analysis. Cell preparation: Cell were harvested and washed with PBS+2% FBS for one time. Cell density was adjusted to 1.5E6/mL in PBS/2% FBS. Cell were added to 96 U-bottom well plates at 100 μL/well. Antibody samples preparation: Antibody in supernatant was adjusted to 10 μg/mL using PBS+2% FBS, with serial 5 times dilution performed to obtain 3 concentrations of antibody solution. The blank was PBS+2% FBS. Antibody solutions were placed into 96 U-bottom well plates at 100 μL/well in the same arranging pattern as the cell preparation. Incubation: The antibody samples (100 μl) were mixed with the cells (100 μl), and incubated at RT for 1 h, then centrifuged the plate for 3 min at 1000 rpm (swing bucket). The supernatant was pipetted and the cells were washed with PBS+2% FBS for one time. Incubation with the secondary antibody: Cy3-Conjugated AffiniPure Goat Anti-Human IgG was diluted 250× by PBS+2% FBS, and added to the 96 U-bottom well plate with 100 μl/well, then incubated at RT for 30 min. After that, the plate was centrifuged at 1000 rpm for 3 min and the supernatant was pipetted out. The cell was washed with PBS+2% FBS twice. Cells were re-suspended in 200 μl PBS+2% FBS and analyzed on FACS. The MFI of total live cells were used as binding signal.
Methods—heat treatment. Culture supernatant was serial diluted to the indicated concentration of IgG with cell media and heated at 70° C. for 5 mins on a PCR machine, then quickly cooled down to room temperature.

antigen = molecular target: T1, antigen (Homo sapiens, UniProt Q14392); assay: Label-free kinetic binding assay on Gator; details: for Rmax / koff / kon: IgG 2 μg/ml on anti-human Fc probes, antigen 5 μg/ml
T1 sequence (Q14392 20-662): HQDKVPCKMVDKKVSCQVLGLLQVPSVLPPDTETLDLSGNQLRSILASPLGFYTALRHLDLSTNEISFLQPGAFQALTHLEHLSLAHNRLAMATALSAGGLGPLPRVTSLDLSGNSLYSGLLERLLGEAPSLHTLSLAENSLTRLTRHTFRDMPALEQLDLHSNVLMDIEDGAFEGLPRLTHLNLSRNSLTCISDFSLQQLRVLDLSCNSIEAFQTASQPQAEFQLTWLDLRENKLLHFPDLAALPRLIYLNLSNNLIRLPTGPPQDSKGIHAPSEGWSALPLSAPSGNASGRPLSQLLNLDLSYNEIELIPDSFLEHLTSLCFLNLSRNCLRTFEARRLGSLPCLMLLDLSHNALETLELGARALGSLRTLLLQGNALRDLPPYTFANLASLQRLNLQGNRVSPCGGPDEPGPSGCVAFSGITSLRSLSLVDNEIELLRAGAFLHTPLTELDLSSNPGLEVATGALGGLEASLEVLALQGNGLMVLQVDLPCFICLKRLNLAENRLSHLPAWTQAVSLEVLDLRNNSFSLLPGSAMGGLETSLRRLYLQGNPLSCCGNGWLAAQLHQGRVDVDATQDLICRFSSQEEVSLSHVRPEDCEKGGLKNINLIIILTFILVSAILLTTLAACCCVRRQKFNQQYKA
Description: Affinity measurement. Label-free kinetic binding assay was performed on Gator (similar to Octet).
Methods. Affinity was measured on Gator (ProbeLife, Palo Alto). In brief, the purified IgG sample was diluted in K buffer at 2 μg/ml, and the antigen was diluted at 5 μg/ml. The antibody-loaded anti-human Fc probes were dipped in antigen wells for 5 mins and then moved to K buffer wells for 5 mins. In the whole process, the sample plate was shaken at 1,000 rpm. The data analysis was carried out using Gator software (ProbeLife).

[1] = Thermostability by DSF/SLS (UNcle); format: physicochemical; details: for SLS Tagg 266: SLS at 266 nm; for SLS Tagg 473: SLS at 473 nm; for DSF TM2 / DSF Tm1: ramp 1° C./min, 20° C. to 95° C.
Description: Developability Analysis for PIIO-1 humanization leads. Antibodies were analyzed for thermostability by DSF/SLS. Samples were submitted to the UNcle system (Unchained Labs) for analysis. A temperature ramp of 1° C./min was performed with monitoring from 20° C. to 95° C. for DSF and SLS. UNcle measures SLS at 266 nm and 473 nm. Tm and Tagg were calculated and analyzed by using the UNcle Analysis Software. DSF: Differential scanning fluorimetry; SLS: Static light scattering; Tm: Melting temperature; Tagg 266: Thermal aggregation when SLS at 266 nm; Tagg 473: Thermal aggregation when SLS at 473 nm. A summary is shown below in Table F:
IgG is a multi-domain structure and each domain has its own melting Temperature (Tm). […] Fabs have Tm in a wide range, generally about 50-85° C., due to large sequence variation. Therefore, the Tm values measured by various analytical techniques are usually “apparent” transition temperatures rather than the real Tm for each domain. In the case of whole IgG, there are often 2-3 Tm values in DSF measurement, presenting some challenge in determining which Tm represents which domain.
Tagg is the temperature at which SLS starts to detect aggregation particles. Tagg266 measures SLS at 266 nm, which is more sensitive and suitable to detect smaller aggregation particles. Tagg473 measures SLS at 473 nm and is better to detect larger particles.

[2] = Aggregation potential by DLS analysis; format: physicochemical; details: for Peak 1 Mass / Peak 1 Mode Diameter / Peak 1 PDI / Peak 2 Mass: DLS at 25° C.
Description: Aggregation potential by DLS analysis. DLS was performed on UNcle system (Unchained Labs). DLS was measured at 25° C. Data was calculated and analyzed using UNcle Analysis Software. DLS: Dynamic light scattering PDI: Polydispersity index, PDI=(standard deviation/mean hydrodynamic radius).
Dynamic Light Scattering (DLS) is used to detect aggregation in the antibody sample. “Mode diameter” is protein particle diameter and “mass percentage” is the amount of each size fraction in percentage. “PDI” is Polydispersity Index; the higher this index, the more polydispersity in the sample is. […] Peak 1 is the major peak and represents the IgG monomer. The inventor takes “Peak 1 mass percentage” and “PDI” value into consideration in selecting a lead.

[3] = Reducing CE-SDS (heterogeneity); format: physicochemical; details: Reducing-CE-SDS
Description: (§1) Analysis of the heterogeneity by Capillary Electrophoresis (CE). The sample was prepared in reducing and non-reducing labeling buffer before being submitted to the CE analysis. A summary of the Reducing-CE-SDS and Non-Reducing-CE-SDS results are shown in FIG. 13A/Table H and FIG. 13B/Table I, respectively: […]

[4] = Non-reducing CE-SDS (heterogeneity); format: physicochemical
Description: as §1

Baculovirus = Baculovirus (BV) ELISA for non-specific binding
Description: Baculovirus (BV) ELISA was employed as a preliminary assay to evaluate antibody's potential nonspecific binding risk.
In Baculovirus (BV) ELISA, the inventor used Rituxan Mab as reference. […] If a clone only has binding on BV, but not on 293 cells, it will be considered as having a low risk of non-specific binding.
Methods—Baculovirus ELISA. Plates are coated with 50 μl of 1:500 diluted Baculovirus sample in PBS in each well. Plates are kept at 4° C. for overnight. The plates are washed with 300 μL of wash buffer ×3 and 200 μl blocking buffer (1% BSA) is added at RT for 60 min. Plates are washed with 300 μl of wash buffer ×3 and 100 μl of diluted Abs are added at different concentrations/well, followed by RT incubation for 1 hr. Plates are washed with 300 μl of wash buffer ×6 and 100 μl of 1:5000 HRP conjugated second Ab in PBS is added followed by RT incubation for 1 hr. The plates are washed with 300 μl of wash buffer ×6. Developing buffer is added and the plate is read.

Molecule | FACS with Ag(−) cell (MFI) (Ag(−) cell; Heating) | FACS with Ag(−) cell (MFI) (Ag(−) cell; Non-Heating) | KD value compared with the chimeric (antigen) | Rmax (antigen) | koff (antigen) | kon (antigen) | SLS Tagg 266 [1] | SLS Tagg 473 [1] | DSF TM2 [1] | DSF Tm1 [1] | Peak 1 Mass [2] | Peak 1 Mode Diameter [2] | Peak 1 PDI [2] | Peak 2 Mass [2] | OTHER (%) [3] | PK#1 (%) [3] | PK#2 (%) [3] | PK#3 (%) [3] | Main Peak (%) [4] | OTHER (%) [4] | other results
H2L1: humanized PIIO-1 antibody, VH SEQ ID NO: 21 and VL SEQ ID NO: 23 (antibody, V domains shown) VH: QVQLQESGPGLVKPSQTLSLTCTVSGYSITSDYAWNWIRQFPGNKLEWMGYISYSGSTSYTPSLKSRITISRDTSKNHFFLKLSSVTAADTAVYYCAKSGGDYYGSSSYWYFDVWGQGTMVTVSS VL: DIVLTQSPSSLAVSLGERATMNCKSSQSLLNSRSQKNYLAWYQQKPGQPPKLLIYGASTRGSGVPDRFSGSGSGTDFTLTISSLQAEDVAVYYCQNDHSYPFTFGQGTKLEIKR | 3.29 | 3.23 | same KD value to the chimeric | 0.756 | 0.000806 | 1.00E+05 | 73.7 °C | 74.7 °C | 83.2 °C | 69.9 °C | 100% | 9.68 nm | 0.141 | 0% | 2.7% | 21.7% | 6.9% | 68.7% | 89.1% | 10.8% | comparison of humanized antibodies by Table G [2]: superior to huPIIO-1VH1VL1; BV ELISA with purified IgG, raw BV binding data (Baculovirus; Ab. Conc. 0.15625 ug/ml): 14.5; BV ELISA with purified IgG, raw BV binding data (Baculovirus; Ab. Conc. 0.3125 ug/ml): 14.6; BV ELISA with purified IgG, raw BV binding data (Baculovirus; Ab. Conc. 0.625 ug/ml): 15.6; BV ELISA with purified IgG, raw BV binding data (Baculovirus; Ab. Conc. 1.25 ug/ml): 18.3; BV ELISA with purified IgG, raw BV binding data (Baculovirus; Ab. Conc. 2.5 ug/ml): 17.8; BV ELISA with purified IgG, raw BV binding data (Baculovirus; Ab. Conc. 5 ug/ml): 30.8; BV ELISA with purified IgG, raw BV binding data (Baculovirus; Ab. Conc. 10 ug/ml): 82.7; BV ELISA with purified IgG, raw BV binding data (Baculovirus; Ab. Conc. 20 ug/ml): 161.0
H1L1: humanized PIIO-1 antibody, VH SEQ ID NO: 20 and VL SEQ ID NO: 23 (antibody, V domains shown) VH: QVQLQESGPGLVKPSQTLSLTCTVSGYSITSDYAWNWIRQFPGNKLEWMGYISYSGSTSYTPSLKSRVTISRDTSKNHFSLKLSSVTAADTAVYYCAKSGGDYYGSSSYWYFDVWGQGTMVTVSS VL: DIVLTQSPSSLAVSLGERATMNCKSSQSLLNSRSQKNYLAWYQQKPGQPPKLLIYGASTRGSGVPDRFSGSGSGTDFTLTISSLQAEDVAVYYCQNDHSYPFTFGQGTKLEIKR | 3.36 | 3.31 | same KD value to the chimeric | 0.791 | 0.00081 | 1.01E+05 | 74.2 °C | 74.9 °C | 83.7 °C | 70.2 °C | 99.95% | 9.68 nm | 1.228 | 0% | 0.9% | 5.6% | 23.2% | 70.4% | 97.6% | 2.4% | PDI compared with WT [2]: slight worse than WT; BV ELISA with purified IgG, raw BV binding data (Baculovirus; Ab. Conc. 0.15625 ug/ml): 15.0; BV ELISA with purified IgG, raw BV binding data (Baculovirus; Ab. Conc. 0.3125 ug/ml): 16.2; BV ELISA with purified IgG, raw BV binding data (Baculovirus; Ab. Conc. 0.625 ug/ml): 14.7; BV ELISA with purified IgG, raw BV binding data (Baculovirus; Ab. Conc. 1.25 ug/ml): 16.0; BV ELISA with purified IgG, raw BV binding data (Baculovirus; Ab. Conc. 2.5 ug/ml): 18.3; BV ELISA with purified IgG, raw BV binding data (Baculovirus; Ab. Conc. 5 ug/ml): 24.9; BV ELISA with purified IgG, raw BV binding data (Baculovirus; Ab. Conc. 10 ug/ml): 52.7; BV ELISA with purified IgG, raw BV binding data (Baculovirus; Ab. Conc. 20 ug/ml): 157.2
